Assay results reported in patent US20250320281A1.

Columns and labels:
Assay in all cases: cell-based or functional assay
[1] = molecular target: HIV-1 envelope glycoprotein (Env) of isolate MGRM-A-002, clade A (HIV-1)
[2] = molecular target: HIV-1 Env of isolate MGRM-D-018 (clade D pseudovirus) (HIV-1)
[3] = molecular target: HIV-1 envelope glycoprotein (Env) of isolate 92UG037, clade A (HIV-1)
[4] = molecular target: HIV-1 Env of isolate APV_13, clade B, on pseudovirus (HIV-1)
[5] = molecular target: HIV-1 Env of pseudovirus MGRM-AG-011 (clade CRF_AG) (HIV-1)
[6] = molecular target: HIV-1 APV-6 envelope glycoprotein (Env) on pseudovirus (HIV-1)
[7] = molecular target: HIV-1 Env of pseudovirus MGRM-AE-003 (clade CRF01_AE) (HIV-1)
[8] = molecular target: HIV-1 Env of isolate 93IN905 (HIV-1)
[9] = molecular target: HIV-1 92TH021 envelope glycoprotein (Env) on pseudovirus (HIV-1)
[10] = molecular target: HIV-1 Env of pseudovirus MGRM-F1-021 (HIV-1)
[11] = molecular target: HIV-1 Env of isolate 92BR020, clade B, on pseudovirus (HIV-1)
[12] = molecular target: HIV-1 envelope glycoprotein (Env) of isolate 93RW029, clade A (HIV-1)
[13] = molecular target: HIV-1 APV-13 envelope glycoprotein (Env) on pseudovirus (HIV-1)
[14] = molecular target: HIV-1 Env of pseudovirus MGRM-Chronic-B-017 (HIV-1)
[15] = molecular target: HIV-1 Env of pseudovirus MGRM-AG-013 (clade CRF_AG) (HIV-1)
[16] = molecular target: HIV-1 Env of pseudovirus MGRM-G-006 (clade G) (HIV-1)
[17] = molecular target: HIV-1 APV-17 envelope glycoprotein (Env) on pseudovirus (HIV-1)
[18] = molecular target: HIV-1 Env of pseudovirus MGRM-G-001 (clade G) (HIV-1)
[19] = molecular target: HIV-1 envelope glycoprotein (Env) of isolate MGRM-A-009, clade A (HIV-1)
[20] = molecular target: HIV-1 Env of pseudovirus CMU02 (clade CRF01_AE) (HIV-1)
[21] = molecular target: HIV-1 Env of isolate MGRM-Chronic-B-003, clade B, on pseudovirus (HIV-1)

1443_C16 (PG16) (TCN-116) (antibody), sequence (VH): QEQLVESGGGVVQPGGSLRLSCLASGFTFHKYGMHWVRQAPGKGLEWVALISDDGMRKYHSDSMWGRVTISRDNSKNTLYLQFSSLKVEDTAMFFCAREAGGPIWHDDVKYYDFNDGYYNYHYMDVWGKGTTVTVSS
1443_C16 (PG16) (TCN-116) (antibody), sequence (VL): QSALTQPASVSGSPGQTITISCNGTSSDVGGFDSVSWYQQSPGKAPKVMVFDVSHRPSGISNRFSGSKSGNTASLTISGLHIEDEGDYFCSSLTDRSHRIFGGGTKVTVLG

2F5 (antibody) gave an IC50 (µg/ml), pseudovirus neutralization [1] of over 50 µg/mL, an IC50 (µg/ml), pseudovirus neutralization [2] of 4.05 µg/mL and an IC50 (µg/ml), pseudovirus neutralization [3] of 3.24 µg/mL. The IC50 (µg/ml), pseudovirus neutralization [4] was 3.81 µg/mL, the IC50 [5] was over 50 µg/mL and the IC50, pseudovirus neutralization [6] was 0.1 µg/mL. The IC50 [7] was 0.24 µg/mL, the IC50 [8] was over 50 µg/mL and the IC50, pseudovirus neutralization [9] was 1.51 µg/mL. For the same substance, the IC50 (µg/ml), pseudovirus neutralization [10] was 1.37 µg/mL, the IC50 (µg/ml), pseudovirus neutralization [11] was over 50 µg/mL and the IC50 (µg/ml), pseudovirus neutralization [12] was over 50 µg/mL. It also gave an IC50, pseudovirus neutralization [13] of 2.8 µg/mL, an IC50 (µg/ml), pseudovirus neutralization [14] of over 50 µg/mL and an IC50 [15] of 1.79 µg/mL. It also gave an IC50 [16] of 1.33 µg/mL, an IC50, pseudovirus neutralization [17] of 2 µg/mL and an IC50 [18] of 4.1 µg/mL. It also gave an IC50 (µg/ml), pseudovirus neutralization [19] of 9.4 µg/mL, an IC50 [20] of 0.6 µg/mL and an IC50 (µg/ml), pseudovirus neutralization [21] of 1 µg/mL.

With 2G12 (antibody) the IC50 (µg/ml), pseudovirus neutralization [1] was over 50 µg/mL, the IC50 (µg/ml), pseudovirus neutralization [2] was 0.12 µg/mL and the IC50 (µg/ml), pseudovirus neutralization [3] was 45.2 µg/mL. For the same substance, the IC50 (µg/ml), pseudovirus neutralization [4] was 9.24 µg/mL, the IC50 [5] was over 50 µg/mL and the IC50, pseudovirus neutralization [6] was 5.3 µg/mL. For the same substance, the IC50 [7] was over 50 µg/mL, the IC50 [8] was over 50 µg/mL and the IC50, pseudovirus neutralization [9] was over 50 µg/mL. For the same substance, the IC50 (µg/ml), pseudovirus neutralization [10] was 14.1 µg/mL, the IC50 (µg/ml), pseudovirus neutralization [11] was 4.84 µg/mL and the IC50 (µg/ml), pseudovirus neutralization [12] was over 50 µg/mL. The IC50, pseudovirus neutralization [13] was 23.9 µg/mL, the IC50 (µg/ml), pseudovirus neutralization [14] was over 50 µg/mL and the IC50 [15] was 0.95 µg/mL. The IC50 [16] was over 50 µg/mL, the IC50, pseudovirus neutralization [17] was over 50 µg/mL and the IC50 [18] was over 50 µg/mL. The IC50 (µg/ml), pseudovirus neutralization [19] was 7.47 µg/mL, the IC50 [20] was over 50 µg/mL and the IC50 (µg/ml), pseudovirus neutralization [21] was 0.06 µg/mL.

For 4E10 (antibody), the IC50 (µg/ml), pseudovirus neutralization [1] was 6.45 µg/mL, the IC50 (µg/ml), pseudovirus neutralization [2] was 3.9 µg/mL and the IC50 (µg/ml), pseudovirus neutralization [3] was 8.84 µg/mL. It also gave an IC50 (µg/ml), pseudovirus neutralization [4] of 7.33 µg/mL, an IC50 [5] of 1.36 µg/mL and an IC50, pseudovirus neutralization [6] of 0.4 µg/mL. For the same substance, the IC50 [7] was 0.34 µg/mL, the IC50 [8] was 1.26 µg/mL and the IC50, pseudovirus neutralization [9] was 1.9 µg/mL. The IC50 (µg/ml), pseudovirus neutralization [10] was 1.87 µg/mL, the IC50 (µg/ml), pseudovirus neutralization [11] was over 50 µg/mL and the IC50 (µg/ml), pseudovirus neutralization [12] was 15.5 µg/mL. It also gave an IC50, pseudovirus neutralization [13] of 3.8 µg/mL, an IC50 (µg/ml), pseudovirus neutralization [14] of 2.77 µg/mL and an IC50 [15] of 2.61 µg/mL. It also gave an IC50 [16] of 1.23 µg/mL, an IC50, pseudovirus neutralization [17] of 5.1 µg/mL and an IC50 [18] of 2.04 µg/mL. The IC50 (µg/ml), pseudovirus neutralization [19] was 12 µg/mL, the IC50 [20] was 0.72 µg/mL and the IC50 (µg/ml), pseudovirus neutralization [21] was 3.5 µg/mL.

1443_C16 (PG16) (TCN-116) (antibody) was tested, and the IC50 (µg/ml), pseudovirus neutralization [1] was 0.004 µg/mL, the IC50 (µg/ml), pseudovirus neutralization [2] was 0.004 µg/mL and the IC50 (µg/ml), pseudovirus neutralization [3] was 0.01 µg/mL. The IC50 (µg/ml), pseudovirus neutralization [4] was over 50 µg/mL, the IC50 [5] was 0.002 µg/mL and the IC50, pseudovirus neutralization [6] was 0.08 µg/mL. The IC50 [7] was 0.03 µg/mL, the IC50 [8] was 0.25 µg/mL and the IC50, pseudovirus neutralization [9] was 0.127 µg/mL. For the same substance, the IC50 (µg/ml), pseudovirus neutralization [10] was over 50 µg/mL, the IC50 (µg/ml), pseudovirus neutralization [11] was over 50 µg/mL and the IC50 (µg/ml), pseudovirus neutralization [12] was 3.83 µg/mL. The IC50, pseudovirus neutralization [13] was over 50 µg/mL, the IC50 (µg/ml), pseudovirus neutralization [14] was 0.02 µg/mL and the IC50 [15] was 0.31 µg/mL. The IC50 [16] was 2.42 µg/mL, the IC50, pseudovirus neutralization [17] was over 50 µg/mL and the IC50 [18] was 0.15 µg/mL. The IC50 (µg/ml), pseudovirus neutralization [19] was 0.01 µg/mL, the IC50 [20] was 43.6 µg/mL and the IC50 (µg/ml), pseudovirus neutralization [21] was 0.19 µg/mL.

1495_C14 (PGC14) (antibody) was tested, and the IC50 (µg/ml), pseudovirus neutralization [1] was over 50 µg/mL, the IC50 (µg/ml), pseudovirus neutralization [2] was over 50 µg/mL and the IC50 (µg/ml), pseudovirus neutralization [3] was over 50 µg/mL. The IC50 (µg/ml), pseudovirus neutralization [4] was over 50 µg/mL, the IC50 [5] was over 50 µg/mL and the IC50, pseudovirus neutralization [6] was 7.41 µg/mL. For the same substance, the IC50 [7] was over 50 µg/mL, the IC50 [8] was 19 µg/mL and the IC50, pseudovirus neutralization [9] was over 50 µg/mL. The IC50 (µg/ml), pseudovirus neutralization [10] was 46 µg/mL, the IC50 (µg/ml), pseudovirus neutralization [11] was 4 µg/mL and the IC50 (µg/ml), pseudovirus neutralization [12] was 42 µg/mL. The IC50, pseudovirus neutralization [13] was over 50 µg/mL, the IC50 (µg/ml), pseudovirus neutralization [14] was over 50 µg/mL and the IC50 [15] was over 50 µg/mL. The IC50 [16] was over 50 µg/mL, the IC50, pseudovirus neutralization [17] was over 50 µg/mL and the IC50 [18] was over 50 µg/mL. It also gave an IC50 (µg/ml), pseudovirus neutralization [19] of over 50 µg/mL, an IC50 [20] of over 50 µg/mL and an IC50 (µg/ml), pseudovirus neutralization [21] of over 50 µg/mL.

b12 (antibody) gave an IC50 (µg/ml), pseudovirus neutralization [1] of over 50 µg/mL, an IC50 (µg/ml), pseudovirus neutralization [2] of 1.39 µg/mL and an IC50 (µg/ml), pseudovirus neutralization [3] of over 50 µg/mL. It also gave an IC50 (µg/ml), pseudovirus neutralization [4] of over 50 µg/mL, an IC50 [5] of over 50 µg/mL and an IC50, pseudovirus neutralization [6] of over 25 µg/mL. It also gave an IC50 [7] of over 50 µg/mL, an IC50 [8] of 21.4 µg/mL and an IC50, pseudovirus neutralization [9] of 9.99 µg/mL. It also gave an IC50 (µg/ml), pseudovirus neutralization [10] of over 50 µg/mL, an IC50 (µg/ml), pseudovirus neutralization [11] of over 50 µg/mL and an IC50 (µg/ml), pseudovirus neutralization [12] of over 50 µg/mL. For the same substance, the IC50, pseudovirus neutralization [13] was over 25 µg/mL, the IC50 (µg/ml), pseudovirus neutralization [14] was 2.59 µg/mL and the IC50 [15] was over 50 µg/mL. For the same substance, the IC50 [16] was over 50 µg/mL, the IC50, pseudovirus neutralization [17] was over 25 µg/mL and the IC50 [18] was over 50 µg/mL. It also gave an IC50 (µg/ml), pseudovirus neutralization [19] of 4.34 µg/mL, an IC50 [20] of 29.3 µg/mL and an IC50 (µg/ml), pseudovirus neutralization [21] of over 50 µg/mL.
